According to paper PMC11079059, “Development of a new affinity maturation protocol for the construction of an internalizing anti-nucleolin antibody library” (Scientific Reports, 2024):

Target: T1, nucleolin (Homo sapiens, UniProt P19338)
T1 construct: The cells were not transfected; also called cell surface nucleolin; source: endogenous, on nucleolin-overexpressing MDA-MB-435S cells
Assay: flow cytometry on cells; 1.5 x 10^5 MDA-MB-435S cells with 1 µg of each purified VHH, 45 min at 4 °C, PBS with 1% BSA; detected with anti-HA-Alexa Fluor 647; MFI normalised to cells with secondary antibody only; a representative experiment
Conditions: one partner purified

T1 sequence (P19338 whole entry): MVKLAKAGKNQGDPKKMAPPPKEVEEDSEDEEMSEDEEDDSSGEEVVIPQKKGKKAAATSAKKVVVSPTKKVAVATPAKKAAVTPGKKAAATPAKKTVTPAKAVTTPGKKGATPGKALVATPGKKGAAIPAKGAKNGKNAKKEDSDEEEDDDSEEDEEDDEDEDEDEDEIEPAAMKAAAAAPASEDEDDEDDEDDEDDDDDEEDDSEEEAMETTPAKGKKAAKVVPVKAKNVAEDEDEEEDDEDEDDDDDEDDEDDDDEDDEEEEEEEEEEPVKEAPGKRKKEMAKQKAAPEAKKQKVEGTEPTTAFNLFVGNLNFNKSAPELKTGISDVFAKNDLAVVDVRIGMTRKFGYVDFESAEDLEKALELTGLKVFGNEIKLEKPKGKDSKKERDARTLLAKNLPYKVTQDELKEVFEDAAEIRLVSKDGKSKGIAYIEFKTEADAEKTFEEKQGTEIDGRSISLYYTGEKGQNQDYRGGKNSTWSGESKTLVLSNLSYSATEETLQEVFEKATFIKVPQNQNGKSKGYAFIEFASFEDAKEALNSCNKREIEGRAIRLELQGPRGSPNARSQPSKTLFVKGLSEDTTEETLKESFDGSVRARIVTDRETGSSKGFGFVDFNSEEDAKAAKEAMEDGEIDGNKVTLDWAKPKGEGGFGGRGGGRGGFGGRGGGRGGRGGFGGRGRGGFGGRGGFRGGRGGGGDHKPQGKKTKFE

| fold increase in binding (normalised MFI) relative to the reference VHH | Binder |
| --- | --- |
| 1.4 fold | VHH clone D10 (VHH, source: ER2738 E. coli, IPTG induction, purified (Dynabeads His-Tag Isolation & Pulldown)) VHH: QVQLQESGGGLVQPGGSLRLSCAASGRASASSARSARAIGWFRQAPGKEREFVARIYWSSGNTYYADSVKGRFAISRDIAKNTVDLTMNNLEPEDTAVYYCAAPQRRSARLSAWGQGTQVTVSS |
| 2 fold | VHH clone D11 (VHH, source: ER2738 E. coli, IPTG induction, purified (Dynabeads His-Tag Isolation & Pulldown)) VHH: QVQLQESGGGLVQPGGSLRLSCAASGRASASSARSARAIGWFRQAPGKEREFVARIYWSSGNTYYADSVKGRFAISRDIAKNTVDLTMNNLEPEDTAVYYCAAPQRRSARLSAWGQGTQVTVSS |
